Assay results taken from patent publication US20240158497A1 (published 2024).

T1: Macaca Fascicularis GP130 extracellular domain expressed with a C-terminal myc-myc-hexahistidine tag (Macaca fascicularis, UniProt P40189 23-619 (human entry))
T1 construct: also called mfGP130-MMH; mfGP130-mmH
T1 chain: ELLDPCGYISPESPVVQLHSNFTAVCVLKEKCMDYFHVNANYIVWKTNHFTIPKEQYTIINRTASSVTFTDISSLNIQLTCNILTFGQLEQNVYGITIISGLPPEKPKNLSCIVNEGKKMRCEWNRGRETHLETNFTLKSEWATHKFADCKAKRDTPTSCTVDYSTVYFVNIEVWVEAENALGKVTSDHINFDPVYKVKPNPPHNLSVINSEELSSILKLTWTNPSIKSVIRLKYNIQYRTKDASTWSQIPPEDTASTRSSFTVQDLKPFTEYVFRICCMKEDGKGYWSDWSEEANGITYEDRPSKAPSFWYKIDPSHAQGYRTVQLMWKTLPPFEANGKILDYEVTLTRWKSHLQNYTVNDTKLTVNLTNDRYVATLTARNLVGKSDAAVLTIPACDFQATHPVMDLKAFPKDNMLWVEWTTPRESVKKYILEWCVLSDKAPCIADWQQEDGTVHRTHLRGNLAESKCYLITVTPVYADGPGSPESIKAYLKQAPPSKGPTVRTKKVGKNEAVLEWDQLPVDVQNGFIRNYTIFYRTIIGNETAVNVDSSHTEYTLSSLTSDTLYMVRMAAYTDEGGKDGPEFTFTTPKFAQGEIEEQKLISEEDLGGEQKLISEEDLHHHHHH

T2: Macaca fascicularis GP130 extracellular domain expressed with a C-terminal myc-myc-hexahistidine tag (Macaca fascicularis, UniProt P40189 23-619 (human entry))
T2 construct: Monomeric reagent; also called mfGP130-mmH; mfGP130-MMH
T2 chain: T1 chain

B1: bsAb19757D (bispecific antibody, V domains shown)
VH 1: EVQLVESGGGLVQPGGSLRLSCVASGFTFNKYDMHWVRQTTGKGLEWVSGIDTDGDTYYPGSVKGRFTISRENAENSLYLQMNGLRVGDTAVYYCARWPWSGFYGAFDIWGQGTMVTVSS
VH 2: EVQLVESGGGVVRPGGSLRLSCTASGFTFDDYGMSWVRQAPGKGLEWVSGINWNGGRTEYADAVKGRFIISRDNAKNSLYLQMNSLRAEDTALYFCARTELRWDYWGQGTLVTVSS
VL: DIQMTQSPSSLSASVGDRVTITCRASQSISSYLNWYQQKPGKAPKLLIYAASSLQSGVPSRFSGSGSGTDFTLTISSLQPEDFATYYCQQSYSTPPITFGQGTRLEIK
notes: LEPR x GP130 bispecific with common light chain
B2: bsAb19758D (bispecific antibody, V domains shown)
VH 1: B1 VH 1
VH 2: EVQLVESGGGLVQSGGSLRLSCAASGFTFSRYEMNWVRQAPGKGLEWVAYISNTGTTRDYSDSVKGRFTISRDNAKNSLYLQMSSLRVEDTAVYYCVREKFSGTSDWFDPWGQGTLVTVSS
VL: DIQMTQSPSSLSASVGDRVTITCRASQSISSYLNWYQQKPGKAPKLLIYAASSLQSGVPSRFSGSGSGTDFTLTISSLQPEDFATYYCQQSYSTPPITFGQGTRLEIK
notes: as for B1
B3: bsAb19156D (bispecific antibody, V domains shown)
VH 1: QVQLVESGGGVVQPGRSLRLSCTASGFTFSSYAMYWVRQAPGKGLEWVSVIYYDGSYKYYADSVKGRFTISRDNSKNTLYLQMDSLRAEDTAVYYCASYNWNYWYFDFWGRGTLVTVSS
VH 2: QVQLVESGGGLVKPGGSLRLSCAASGFTFSDYYMTWIRQTPGKGLDWVSYISSSGTNKYNADSVKGRFTISRDNAKNSLYLQMNSLRAEDTAVYYCVRDPPWGMDVWGQGTTVTVSS
VL: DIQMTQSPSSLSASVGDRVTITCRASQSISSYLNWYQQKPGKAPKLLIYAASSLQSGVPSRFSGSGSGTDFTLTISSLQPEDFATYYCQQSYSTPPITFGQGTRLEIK
notes: as for B1
B4: MAb16623 (antibody, V domains shown)
VH: EVQLVESGGGLVQPGGSLRLSCAASGLTFSSYEMNWVRQAPGKGLEWVSHISSAGSTKYYADSVKGRFTISRDNAKNSLFLQMNSLRAEDTAIYYCAGYNYAYYYFGVDVWGQGTTVTVSS
VL: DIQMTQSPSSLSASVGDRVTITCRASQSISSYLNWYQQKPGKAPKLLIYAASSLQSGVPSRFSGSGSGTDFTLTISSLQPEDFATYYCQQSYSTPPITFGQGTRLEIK
B5: MAb16622 (antibody, V domains shown)
VH: B1 VH 2
VL: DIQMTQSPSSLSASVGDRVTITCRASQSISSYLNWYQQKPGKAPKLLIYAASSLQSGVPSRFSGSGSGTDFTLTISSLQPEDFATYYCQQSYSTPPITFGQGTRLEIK
B6: MAb16614 (antibody, V domains shown)
VH: QVQLVESGGGVVQPGGSLRLSCAASGFTFSTYDIHWVRQAPGKGLEWVAVISFDGSNRNYGDSVKGRFTISRDNSDNTLFLEMNNLRFEDTAVYYCAKEGYGVDFQHWGQGTLVTVSS
VL: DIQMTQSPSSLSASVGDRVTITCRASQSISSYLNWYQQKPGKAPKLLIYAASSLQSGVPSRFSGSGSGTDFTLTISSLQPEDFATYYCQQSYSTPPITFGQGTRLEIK
B7: MAb16618 (antibody, V domains shown)
VH: QVQLQESGPGLVKPSETLSLTCTVSGGSISNYYWTWIRQPPGKGLEWIGHISNSGTTNYNPSLKSRVTISVDTSKNQFSLKLTSVTAADTAVYYCARLPLGIAAVDTDYYYYFGMDVWGQGTTVTVSS
VL: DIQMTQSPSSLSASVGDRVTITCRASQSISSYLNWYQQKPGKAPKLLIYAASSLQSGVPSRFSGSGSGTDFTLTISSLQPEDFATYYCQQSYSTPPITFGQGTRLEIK
B8: MAb16636 (antibody, V domains shown)
VH: QLQLQESGPGLVKPSETLSLICTVSGGSISSNNYYWGWIRQPPGKGLEWIGNLYGSGSTYYNPSLKSRVTISVDTSKNQFSLKLSFVTAADTAVYHCARWDTNGGAFDIWGQGTMVTVSS
VL: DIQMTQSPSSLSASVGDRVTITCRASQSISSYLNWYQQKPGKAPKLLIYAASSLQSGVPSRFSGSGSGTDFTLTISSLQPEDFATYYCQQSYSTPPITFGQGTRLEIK

Target: T1, Macaca Fascicularis GP130 extracellular …
Assay: SPR, bsAb captured by anti-hFc, 37C
Procedure: (§1) Equilibrium dissociation constants (KD values) for LEPR and GP130 binding to purified anti-LEPR/GP130 bispecific antibodies were determined using a real-time surface plasmon resonance biosensor using a Biacore 4000 instrument. All binding studies were performed in 10 mM HEPES, 150 mM NaCl, 3 mM EDTA, and 0.05% v/v Surfactant Tween-20, pH 7.4 (HBS-ET) running buffer at 25° C. and 37° C. The Biacore sensor surface was first derivatized by amine coupling with a monoclonal mouse anti-human Fc antibody (GE, #BR-1008-39) to capture anti-LEPR/GP130 bispecific antibodies. […] Different concentrations of LEPR or GP130 reagents were first prepared in HBS-ET running buffer (100 nM-3.7 nM; 3-fold serial dilution) and were injected over anti-human Fc captured anti-LEPR/GP130 bispecific antibody surface for 4 minutes at a flow rate of 30 μL/minute, while the dissociation of bispecific antibody bound LEPR or GP130 reagent was monitored for 10 minutes in HBS-ET running buffer. Kinetic association (kₐ) and dissociation (kd) rate constants were determined by fitting the real-time binding sensorgrams to a 1:1 binding model with mass transport limitation using Scrubber 2.0c curve-fitting software. Binding dissociation equilibrium constants (KD) and dissociative half-lives (t ½) were calculated from the kinetic rate constants as: […]

Row | 100 nM mfGP130-MMH Bound (RU) | Kd [nM] | koff [s⁻¹] | kon [M⁻¹ s⁻¹] | t½ [s] | Binder
1 | 14 | 450 | 0.0598 | 133000 | 12 | B1
2 | 45 | 18.2 | 0.0073 | 402000 | 96 | B2
3 | 26 | 87.6 | 0.00767 | 87500 | 90 | B3

The binders below were run against T3, human GP130 extracellular domain expressed with a C-terminal myc-myc-hexahistidine tag (human, UniProt P40189 23-619) (assay: SPR, bsAb captured by anti-hFc, 37C).
T3 construct: also called hGP130-MMH; hGP130-mmH
Procedure: as §1

Row | 100 nM hGP130-MMH Bound (RU) | Kd [nM] | koff [s⁻¹] | kon [M⁻¹ s⁻¹] | t½ [s] | Binder
4 | 16 | 358 | 0.0635 | 178000 | 12 | B1
5 | 50 | 16.7 | 0.00747 | 448000 | 90 | B2
6 | 24 | 95 | 0.00797 | 83900 | 84 | B3

Each binder was assayed against T4, human GP130 extracellular domain expressed with a C-terminal myc-myc-hexahistidine tag (human, UniProt P40189 23-619) (assay: SPR (Biacore 4000), mAb captured on anti-human Fc, 37 C).
T4 construct: Monomeric reagent; also called hGP130-mmH; hGP130-MMH
Procedure: (§2) Equilibrium dissociation constant (KD) for different GP130 reagents binding to purified anti-GP130 monoclonal antibodies were determined using a real-time surface plasmon resonance based Biacore 4000 biosensor. All binding studies were performed in 10 mM HEPES, 150 mM NaCl, 3 mM EDTA, and 0.05% v/v Surfactant Tween-20, pH 7.4 (HBS-ET) running buffer at 25° C. and 37° C. The Biacore sensor surface was first derivatized by amine coupling with a monoclonal mouse anti-human Fc antibody (GE, #BR-1008-39) to capture anti-GP130 monoclonal antibodies. […] Reagents tagged with “mmH” are monomeric, whereas reagents tagged with “mFc” are dimeric. Thus, for example, “hGP130-mmH” is also referred to as “monomeric human GP130,” and “hGP130-mFc” is also referred to as “dimeric human GP130.”
(§3) The association rate (k a) and dissociation rate (kd) were determined by fitting the real-time binding sensorgrams to a 1:1 binding model with mass transport limitation using Scrubber 2.0c curve-fitting software. Binding dissociation equilibrium constant (KD) and dissociative half-life (t ½) were calculated from the kinetic rates as: […]

Row | 100 nM Ag Bound [RU] | Kd [nM] | koff [s⁻¹] | kon [M⁻¹ s⁻¹] | t½ [s] | Binder
7 | 68 | 32.2 | 0.0123 | 381000 | 54 | B4
8 | 30 | 225 | 0.0574 | 255000 | 12 | B5
9 | 10 | 121 | 0.03 | 247000 | 24 | B6
10 | 36 | 103 | 0.112 | 1.08e+06 | 6 | B7
11 | 50 | 71.6 | 0.00441 | 61600 | 156 | B8

Target: T2, Macaca fascicularis GP130 extracellular …
Assay: as above
Procedure: as §2, §3

Row | 100 nM Ag Bound [RU] | Kd [nM] | koff [s⁻¹] | kon [M⁻¹ s⁻¹] | t½ [s] | Binder
12 | 60 | 44.3 | 0.0156 | 352000 | 42 | B4
13 | 28 | 198 | 0.0537 | 272000 | 12 | B5
14 | 8 | 72.2 | 0.0267 | 370000 | 24 | B6
15 | 26 | 90.3 | 0.12 | 1.33e+06 | 6 | B7
16 | 25 | 239 | 0.00945 | 39500 | 72 | B8

Target: T1, Macaca Fascicularis GP130 extracellular …
Assay: SPR, bsAb captured by anti-hFc, 25C
Procedure: as §1

Row | 100 nM mfGP130-MMH Bound (RU) | Kd [nM] | koff [s⁻¹] | kon [M⁻¹ s⁻¹] | t½ [s] | Binder
17 | 15 | 188 | 0.0204 | 108000 | 36 | B1
18 | 46 | 16.5 | 0.00507 | 307000 | 138 | B2
19 | 30 | 22.1 | 0.00162 | 73300 | 420 | B3

The binders below were run against T3, human GP130 extracellular domain … (assay: SPR, bsAb captured by anti-hFc, 25C).
Procedure: as §1

Row | 100 nM hGP130-MMH Bound (RU) | Kd [nM] | koff [s⁻¹] | kon [M⁻¹ s⁻¹] | t½ [s] | Binder
20 | 16 | 196 | 0.0218 | 112000 | 30 | B1
21 | 51 | 14.6 | 0.00457 | 313000 | 150 | B2
22 | 27 | 24.7 | 0.00221 | 89500 | 300 | B3

Target: T2, Macaca fascicularis GP130 extracellular …
Assay: SPR (Biacore 4000), mAb captured on anti-human Fc, 25 C
Procedure: as §2, §3

Row | 100 nM Ag Bound [RU] | Kd [nM] | koff [s⁻¹] | kon [M⁻¹ s⁻¹] | t½ [s] | Binder
23 | 74 | 25.5 | 0.00476 | 187000 | 144 | B4
24 | 34 | 151 | 0.02 | 132000 | 36 | B5
25 | 16 | 139 | 0.0104 | 74400 | 66 | B6
26 | 40 | 166 | 0.0621 | 374000 | 12 | B7
27 | 23 | 107 | 0.00216 | 20100 | 300 | B8
